These results are taken from the nanobody polyreactivity screen of Harvey et al. (2022).

This series can be described thus: yeast display, Sf9 membrane polyspecificity reagent, FACS + sequencing; frameworks hold sequencing errors. The essentials:
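Genes from sorted yeast were amplified by colony PCR, read by MiSeq 2 × 250 sequencing and filtered on CDR length. These cells carried a synthetic nanobody library in Saccharomyces cerevisiae BJ5465 and were sorted by FACS into low and high (top ~1%) gates on anti-HA and streptavidin fluorescence. Polyreactivity is labelled according to the gate of origin.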
In the case of “QVQLVESGGGLVQAGGSLRLSCAASGRIFRYNAMGWYRQAPGKERELVAAITWDGGSTYYADSVKGRFTISRDNAKNTVYLQMNSLKPEDTAVYYCNAVTRSYYSYYYWGQGTQVTVSS”, the “polyreactivity (PSR sort gate)” value is recorded as “high polyreactivity”.
With “QVQLVESGGGLVQAGGSLRLSCAASGRIFRYNAMGWYRQAPGKERELVASINQRGGSTYYADSVKGRFTISRDNAKNTVYLQMNSLKPEDTAVYYCAKRFNSGYYYWGQGTQVTVSS”, the “polyreactivity (PSR sort gate)” value is “high polyreactivity”.
To “QVQLVESGGGLVQAGGSLRLSCAASGRIFRYNAMGWYRQAPGKERELVATITDGGSTSYADSVKGRFTISRDNAKNTVYLQMNSLKPEDTAVYYCARDPLPSYWKVWSRPTFDYWGQGTQVTVSS” belongs “low polyreactivity”; to “QVQLVESGGGLVQAGGSLRLSCAASGRIFRYNAMGWYRQAPGKETELVAVFSGSGGSTYYADSVKGRFTISRDNAKHTVYVQMNSLKPEDTAVYYCAAQFHVSWYNYWGQGTQVTVSS”, “low polyreactivity”.
To “QVQLVESGGGLVQAGGSLRLSCAASGRIFRYYAMGWYIQAPGKERELVAAISKSGGGTFYADSVKGRFTISRDNAKNTVYLQMNSLKPEDTEVYYCAARDKGLGKHDYWGQGTQVTVSS” belongs “low polyreactivity”.
Next, “QVQLVESGGGLVQAGGSLRLSCAASGRIFRYYAMGWYRQAPGKEREFVAAINSSGVNTYYADSVKGRFTISRDNAKNTVYLQMNSLKPEDTAVYYCAFLGMDYWGQGTQVTVSS”: “high polyreactivity”.
In the case of “QVQLVESGGGLVQAGGSLRLSCAASGRIFRYYAMGWYRQAPGKERELVAAINSGGSTKYADSVKGRFTISRDNAKNTVYLQMNSLTPEDTAVYYCNKDHAFSRYWYGGFDYWGQGTQVTVSS”, the “polyreactivity (PSR sort gate)” value was “high polyreactivity”.
As for “QVQLVESGGGLVQAGGSLRLSCAASGRIFRYYAMGWYRQAPGKERELVAAIRGGGSTYYADSVKGRFTISRDNAKNTVYLQMNSLKPEDTAVYYCAAPLIISTLWYKRYDYWGQGTQVTVSS”, the “polyreactivity (PSR sort gate)” value is listed as “high polyreactivity”.
As for “QVQLVESGGGLVQAGGSLRLSCAASGRIFRYYAMGWYRQAPGKERELVAAISGTGGNTYYADSVKGRSTISRDNAKNTVYLQMNSLKPEDTAVYYCAADQEWYYYFDSFAYYILDYWGQGTQVTVSS”, the “polyreactivity (PSR sort gate)” value is “high polyreactivity”.
To “QVQLVESGGGLVQAGGSLRLSCAASGRIFRYYAMGWYRQAPGKERELVAAISKTGGSTYYADSVKGRFTISRDNAKNTVYLQMNSLKPEDTAVYYCAAVGRYSYLSSEGDYWGQGTQVTVSS” belongs “high polyreactivity”; to “QVQLVESGGGLVQAGGSLRLSCAASGRIFRYYAMGWYRQAPGKERELVAAISSGGRTYYADSVKGRFTISRDNAKNTVYLQMNSLKPEDTAVYYCNAYAYHAGGDYWGQGTQVTVSS”, “high polyreactivity”; to “QVQLVESGGGLVQAGGSLRLSCAASGRIFRYYAMGWYRQAPGKERELVAAISSGVGNTYYADSVKWRFTISRDNAKNTVYLQKNSLKPEDTAVYYCNAKWRKFGTVRYDYWGQGTQVTVSS”, “high polyreactivity”.
To “QVQLVESGGGLVQAGGSLRLSCAASGRIFRYYAMGWYRQAPGKERELVADSTRGGGSTYYADSVKGRFTISRDNAKNTVYLQMNSLKPEDTAVYYCAKDGSGGLPVLYRYRYDYWGQGTQVTVSS” belongs “high polyreactivity”.
Next, “QVQLVESGGGLVQAGGSLRLSCAASGRIFRYYAMGWYRQAPGKERELVAGISRSGGRTYYADSVKGRFTISRDNAKNTVYLQMNSLKPEDTAVYYCNASRGYPYHYDYWGQGTQVTVSS”: “high polyreactivity”; “QVQLVESGGGLVQAGGSLRLSCAASGRIFRYYSMGWYRQAPGKERELVAAISGGGSTYYADSVKGRFTISRDNAKNTVYLQMNSLKPEDTAVYYCAALRSSQSKGDYWGQGTQVTVSS”: “high polyreactivity”.
“QVQLVESGGGLVQAGGSLRLSCAASGRIFRYYTMGWYRQAPGKERELVAAIRLAGSTTYYADSVKGRFTISRDNAKNTVYLQMNSLNPEDSAVYSCTTRYPVPSGYDYWGHGTQVTVSS”: the “polyreactivity (PSR sort gate)” value is recorded as “high polyreactivity”.
Next, “QVQLVESGGGLVQAGGSLRLSCAASGRIFRYYTMGWYTPAPGNERELVAAISSSGGRTYYADSVKGRFTISRDNAKNTVYLQMNSLKPEDTAVYYCNAYRRFSAFDYWGQGTQVTVTS”: “high polyreactivity”; “QVQLVESGGGLVQAGGSLRLSCAASGRIFSAYAMGWYRQAPGKEREFVAAISSRGGSTNYADSVKGRFTISRDNANNTVYLHMNSLKPEDTAVYYCNARYVQWYWIGKVIHIDNDYWGQGTQVNVSS”: “low polyreactivity”; “QVQLVESGGGLVQAGGSLRLSCAASGRIFSAYVMGWYRQAPGKERELVAAISSGGSRTSYADSVKGRVTISRDNAKNTVYLQMISLKPEDTAVYYCAASATFWGQGTQVNVSS”: “high polyreactivity”.
To “QVQLVESGGGLVQAGGSLRLSCAASGRIFSDYAMGWYRQAPGKERELVATISASGGSTYYADSVKGRFTVSRDNAKNSVYLQMNSLKPEDTAVYYCAGDYEGYNFDYWGQGTQVTVSS” belongs “low polyreactivity”.
“QVQLVESGGGLVQAGGSLRLSCAASGRIFSEYAMGWYRQAPGKERELVAAISRRGGRTYYADSVKGRFTISRDNAKNTVYLQMNSLKPEETAVYYCAAKIIWFTIRHGSAGFKYWGQGTQVTVSS”: the “polyreactivity (PSR sort gate)” value was “high polyreactivity”.
To “QVQLVESGGGLVQAGGSLRLSCAASGRIFSFNAMGWYRQAPGKERELVASGGSTYADSVKGRFTISRDNAKNTVYLQMNSLKPEETAVYYCAADPFYYFPSPFDYWGQGTQVTVSS” belongs “low polyreactivity”.
To “QVQLVESGGGLVQAGGSLRLSCAASGRIFSFYAMGWKRQAPGKERELVAAITWGDGSTYYADSVKGRFTISRDNAKNTVYLQMNSLKPEDTAVYYCNKTYIDTTVYDVIMDYWGQGTQVTVSS” belongs “low polyreactivity”; to “QVQLVESGGGLVQAGGSLRLSCAASGRIFSFYAMGWYRQAPGKERELVAAITYTDGSTYADSVKGRFTISRDNAKNTVYLQMNSLKPEDTAVYYCATRYRWTPYDYWGQGTQVTVSS”, “low polyreactivity”; to “QVQLVESGGGLVQAGGSLRLSCAASGRIFSGNAMGWYRQAPGKERELVAAISWSGGSTYYADSVKGRFTISRDNAKNSVYLQMNSLKPEDTAVSYCNAPGYRRYGSRMGYWGQGTQVTVSS”, “high polyreactivity”.
Next, “QVQLVESGGGLVQAGGSLRLSCAASGRIFSGYAMGWYRQATGKERELVAAITSVGSTNYADSVKGRFTISRDNAKNTVYLQMNSLKPEDTAVYYCAARSQIYYRYRSYGYWGQGTQVTVSS”: “high polyreactivity”; “QVQLVESGGGLVQAGGSLRLSCAASGRIFSGYTMGWYRQAPGKERELVAAITRSGGSTYYADSVKGRFTISRDNAKNTVYLQMISLKPEDTAVYYCNKVSYRHMDSWGQGTQVTVSS”: “high polyreactivity”.
As for “QVQLVESGGGLVQAGGSLRLSCAASGRIFSHNAMGWYRQAPGKERELVAAITGSGGTTYYADSVKGRFKISRDNAKNTVYLQMNSLKPEDTAVYYCAADWQQLSYVWRSQRRYNYWGQGTQVTVSS”, the “polyreactivity (PSR sort gate)” value is listed as “low polyreactivity”.
To “QVQLVESGGGLVQAGGSLRLSCAASGRIFSIYAMGWYRQAPGKEREFVAAITQSGGSTYYADSVKGRFTISRDNAKNTVYLQMNSLKPEDTAVYYCAADEWGVRSEYDYWGQGTQVTVSS” belongs “low polyreactivity”.
To “QVQLVESGGGLVQAGGSLRLSCAASGRIFSIYAMGWYRQAPVKERELVAAISKRGGSTSYADSVKGRFTISRDNAKNTVYLQMNSLKPEDTAVYYCNARGWIPARGWDDYYWGQGTQVTVSS” belongs “high polyreactivity”.
